Reference: the supplement of paper PMC11780869

Test system: Bacillus subtilis
Assay: cleaved RNA product abundance (RNA/gDNA barcode ratio) relative to median wild-type variant (ratio to wild type); higher = more accumulation of the downstream cleavage product
How it was run: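 Cleaved product abundance was measured with barcoded reporter mRNAs (truncated aprE or tetM) carrying mutagenized RNase Y cleavage-site windows in the B. subtilis chromosome. Cultures in LB at 37°C grew from OD600 0.0003 to 0.3. Gel-selected cleaved RNA was reverse transcribed and barcode-sequenced with genomic DNA barcodes, and the RNA:gDNA barcode ratio per construct was scaled to the median construct bearing the unmutated site.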

[1] = experiment (reporter, strain, medium): exp 2b: truncated aprE reporter, strain BJT200, cleavage site: cggR-gapA (positions -7 to +36 mutated)
[2] = experiment (reporter, strain, medium): exp 4a: truncated aprE reporter, strain BJT201 with 2% xylose (RNase J1 expressed), cleavage site: cggR-gapA (positions -7 to +36 mutated)
[3] = experiment (reporter, strain, medium): exp 8a: truncated aprE reporter, strain BJT201 with 2% xylose (RNase J1 expressed), cleavage site: glnRA (positions -5 to +31 mutated)

Row | Sequence | cleaved RNA product abundance [2] | cleaved RNA product abundance [3] | other results
1 | ACAGACGAAGGAGCCGCAAAGAAGTTATTAAGGGATGAATAATCCCTGAATATAAATATCTCTCACTTATTTAAA | 0.684 |  | cleaved RNA product abundance [1]: 0.566; cleaved RNA product abundance (experiment (reporter, strain, medium): exp 6: tetM reporter, strain 168, cleavage site: cggR-gapA (positions -7 to +36 mutated)): 0.675
2 | ACAGACGAAGGAGCCGCAAACAAGTTATTATGGGATGAATAATCCCTCAATATAAATATCTCTCACTTATTTAAA | 0.213 |  | 
3 | ACAGACGAAGGAGCCGCAAAGTAGTTATAAAGGGATGAATAATCCCTCAATATAAATATCTCTCACTTATTTAAA | 0.301 |  | 
4 | ACAGACGAAGGAGCCGCAAAGAACTTATTAAGGGATGAATAATCCCTCAATATAAATAACTCTCACTTATTTAAA | 0.566 |  | cleaved RNA product abundance [1]: 0.444
5 | ACAGACGAAGGAGCCGCAAATAAGTTATTAAGGGATGAATAATCCCTCAATTTAAATATCTCTCACTTATTTAAA | 0.136 |  | 
6 | CGACATGTCCCGCTTCTTTCATTAATCCATCAGCAACTGTTTTGCTATATACATTTACCTTTTAAGAGGAGGAAT |  | 0.41 | 
7 | CGACATGTCCCGCTTCTTTCATTAATCCGTTACCAACTGTTTTGCTAAATACATTTACCTTTTAAGAGGAGGAAT |  | 0.169 | 
8 | ACAGACGAAGGAGCCGCAAAGAAGTTATTAAGGAATGAATAATCGCTCAATATAAATATCTCTCACTTATTTAAA | 0.0645 |  | 
9 | ACAGACGAAGGAGCCGCAAAGAAGTTATTAAGGGATCACTAATCCCTCAATATAAATATCTCTCACTTATTTAAA | 1.19 |  | 
10 | ACAGACGAAGGAGCCGCAAAGAAGTTATTAAGGCATGAATAATCCCTCAATGTAAATATCTCTCACTTATTTAAA | 0.0571 |  | 
11 | CGACATGTCCCGCTTCTTTCATTAATCCGTTAGCAACTGTATTCCTATATACATTTACCTTTTAAGAGGAGGAAT |  | 0.45 | 
12 | ACAGACGAAGGAGCCGCAAATAAGTTATTAAGGGATGAATAATACCTCAATATAAATATCTCTCACTTATTTAAA | 0.165 |  | cleaved RNA product abundance [1]: 0.112
13 | ACAGACGAAGGAGCCGCAAAGAAGTTATTAAGGGATAAATAATCCCTCATTATAAATATCTCTCACTTATTTAAA | 0.267 |  | 
14 | CGACATGTCCCGCTTCTTTCATTAATCTGTTAGCAACTGTTTTGCTATAGACATTTACCTTTTAAGAGGAGGAAT |  | 0.968 | 
15 | ACAGACGAAGGAGCCGCAAAGAAGTTTTTAAGGGATTAATAATCCCTCAATATAAATATCTCTCACTTATTTAAA | 0.364 |  | cleaved RNA product abundance [1]: 0.364
16 | ACAGACGAAGGAGCCGCAAAGAAGTTATTAAGGCATGAATAATCTCTCAATATAAATATCTCTCACTTATTTAAA | 0.125 |  | cleaved RNA product abundance [1]: 0.0853
17 | ACAGACGAAGGAGCCGCAAAGAAGTTATTAAGGGGATGAATAATCCCTCAATATAAATATCTCTCACTTATTTAA | 0.237 |  | 
18 | CGACATGTCCCGCTTCTTTCATTAATCCGTTATCAACTGTTTTGCTATATACATTTCCCTTTTAAGAGGAGGAAT |  | 0.124 | 
19 | CGACATGTCCCGCTTCTTTCATTATTCCGTTATCAACTGTTTTGCTATATACATTTACCTTTTAAGAGGAGGAAT |  | 0.265 | 
20 | ACAGACGAAGGAGCCGCAAAGAAGTTATTAAGGGTAGAATAATCCCTCAATATAAATATCTCTCACTTATTTAAA | 0.293 |  | cleaved RNA product abundance [1]: 0.172
21 | CGACATGTCCCGCTTCTTTCATTAATCCGTTAGCAACTGTTGTGCTATATACATTTACCTTTTAAGAGGAGGAAT |  | 0.516 | 

Row | Sequence | cleaved RNA product abundance [2] | cleaved RNA product abundance [3] | other results
22 | CGACATGTCCCGCTTCTTTCATTATTCCGTTAGCAACTGTGTTGCTATATACATTTACCTTTTAAGAGGAGGAAT |  | 0.7 | 
23 | ACAGACGAAGGAGCCGCAAAGAAGTTATTAAGGGATAAATAATCCCTCAATATAACTATCTCTCACTTATTTAAA | 0.156 |  | 
24 | ACAGACGAAGGAGCCGCAAAGAAGTTATTAAGGGATGAATAATGCCTCAAAATAAATATCTCTCACTTATTTAAA | 0.173 |  | 
25 | ACAGACGAAGGAGCCGCGAAGAAGTTAATAAGGGATGAATAATCCCTCAATATAAATATCTCTCACTTATTTAAA | 0.31 |  | 
26 | ACAGACGAAGGAGCCGCAAAGAAGTTATTAAGGGATGAATAATCCCTAAGTATAAATATCTCTCACTTATTTAAA | 0.502 |  | cleaved RNA product abundance [1]: 0.255
27 | CGACATGTCCCGCTTCTTTCATTATTCCGTTAGCAACTGTTTTGCTATATACATTTACCTTTTAAGAGGAGGAAT |  | 1.42 | 
28 | ACAGACGAAGGAGCCGCAAAGAAATTATTAAGAGATGAATAATCCCTCAATATAAATATCTCTCACTTATTTAAA | 0.112 |  | cleaved RNA product abundance [1]: 0.121
29 | CGACATGTCCCGCTTCTTTCATTAATCCGTAAGCAACTGTTTTGCTATATACATTTAACATTTAAGAGGAGGAAT |  | 0.275 | 
30 | ACAGACGAAGGAGCCGCCAAGAAGTTATTAACGGATGAATAATCCCTCAATATAAATATCTCTCACTTATTTAAA |  |  | cleaved RNA product abundance [1]: 0.0909
31 | CGACATGTCCCGCTTCTTTCATTAATCCGTTAGCAACTGTTTAGCTATATACATTTACCTTTTAAGAGGAGGAAT |  | 0.537 | 
32 | ACAGACGAAGGAGCCGCAAAGAAGTTATCAAGGGATAAATAATCCCTCAATATAAATATCTCTCACTTATTTAAA | 0.234 |  | 
33 | ACAGACGAAGGAGCCGCAAAGAAGTTATTAAGGTATGAATAATACCTCAATATAAATATCTCTCACTTATTTAAA | 1.16 |  | cleaved RNA product abundance [1]: 1
34 | ACAGACGAAGGAGCCGCAAAGAAGTTATGAAGGTATGAATAATCCCTCAATATAAATATCTCTCACTTATTTAAA | 0.0823 |  | cleaved RNA product abundance [1]: 0.113
35 | ACAGACGAAGGAGCCGCAAAGAAGTTATTAAGGGCTGAATAATCCATCAATATAAATATCTCTCACTTATTTAAA | 0.0979 |  | cleaved RNA product abundance [1]: 0.084
36 | CGACATGTCCCGCTTCTTTCATTAATCCGTGAACAACTGTTTTGCTATATACATTTACCTTTTAAGAGGAGGAAT |  | 0.232 | 
37 | ACAGACGAAGGAGCCGCAAAGAAGTTTTTAAGGGATGAATAATCCCGCAATATAAATATCTCTCACTTATTTAAA | 0.137 |  | 
38 | CGACATGTCCCGCTTCTTTCATTATTCCGTTAGCAACTGTTTTGCTATAAACATTTACCTTTTAAGAGGAGGAAT |  | 0.851 | 
39 | ACAGACGAAGGAGCCGCAAAGAAGTTATTAAGAGATGAATAATCTCTCAATATAAATATCTCTCACTTATTTAAA | 0.924 |  | cleaved RNA product abundance [1]: 0.718
40 | CGACATGTCCCGCTTCTTTCATTAATCCGTTAACAACTGTTATGCTATATACATTTACCTTTTAAGAGGAGGAAT |  | 0.219 | 
41 | ACAGACGAAGGAGCCGCAAAGAAGGTATTAAGGCATGAATAATCCCTCAATATAAATATCTCTCACTTATTTAAA | 0.101 |  | 
42 | ACAGACGAAGGAGCCGCAAAGAAGTTCTTAAGGGATGAATGATCCCTCAATATAAATATCTCTCACTTATTTAAA |  |  | cleaved RNA product abundance [1]: 0.107

Row | Sequence | cleaved RNA product abundance [2] | cleaved RNA product abundance [3] | other results
43 | CGACATGTCCCGCTTCTTTCATTAATCCGTTAGCAACTGTTTTACTATATACATTTACCCTTTAAGAGGAGGAAT |  | 0.921 | 
44 | CGACATGTCCCGCTTCTTTCATTAATCCATTAGCAACTGTTTTGATATATACATTTACCTTTTAAGAGGAGGAAT |  | 0.35 | 
45 | CGACATGTCCCGCTTCTTTCATTAATCCGTTAGCAACTGTTTTACTATATACATTTTCCTTTTAAGAGGAGGAAT |  | 0.458 | 
46 | ACAGACGAAGGAGCCGCAAAGAAGTAATTAAGGGATGAATACTCCCTCAATATAAATATCTCTCACTTATTTAAA | 0.324 |  | 
47 | ACAGACGAAGGAGCCGCAAAGTAGTTATTAAGGGATGAATAATTCCTCAATATAAATATCTCTCACTTATTTAAA | 0.75 |  | 
48 | ACAGACGAAGGAGCCGCAAAGAAGTTATTAAGGGATGATAATCCCTCAATATAAATATCTCTCACTTATTTAAAG | 0.861 |  | 
49 | ACAGACGAAGGAGCCGCAAATAAGTTATTAAGGGATGAATAATCCCTCAAAATAAATATCTCTCACTTATTTAAA | 0.322 |  | cleaved RNA product abundance [1]: 0.34
50 | ACAGACGAAGGAGCCGCAAAGCAGTTATTAATGGATGAATAATCCCTCAATATAAATATCTCTCACTTATTTAAA | 0.171 |  | 
51 | CGACATGTCCCGCTTCTTTCATTAATCCTTTAGAAACTGTTTTGCTATATACATTTACCTTTTAAGAGGAGGAAT |  | 0.18 | 
52 | ACAGACGAAGGAGCCGCAAAGAAGTGATAAAGGGATGAATAATCCCTCAATATAAATATCTCTCACTTATTTAAA | 0.223 |  | 
53 | ACAGACGAAGGAGCCGCAATGAAGTTATTAAGGGATGAATAAACCCTCAATATAAATATCTCTCACTTATTTAAA | 0.454 |  | cleaved RNA product abundance [1]: 0.647
54 | ACAGACGAAGGAGCCGCACAGAAGTTATTAAGGGTTGAATAATCCCTCAATATAAATATCTCTCACTTATTTAAA | 0.473 |  | 
55 | ACAGACGAAGGAGCCGCAAAGAAGTTATTAAGGGATCAATAATCTCTCAATATAAATATCTCTCACTTATTTAAA | 0.342 |  | cleaved RNA product abundance [1]: 0.312
56 | ACAGACGAAGGAGCCGCAAAGAAGTTATTAAGCGATGAATAATCCCTCATAATAAATATCTCTCACTTATTTAAA |  |  | cleaved RNA product abundance [1]: 0.165
57 | ACAGACGAAGGAGCCGCAAAGAAGTTATTAAGGAATGAATAATCCCTCAATATCAATATCTCTCACTTATTTAAA | 0.0389 |  | 
58 | CGACATGTCCCGCTTCTTTCATTAATCCGTTACCAACTGTTTTGCTATATAAATTTACCTTTTAAGAGGAGGAAT |  | 0.163 | 
59 | CGACATGTCCCGCTTCTTTCATTAATGCGTTAGCAACTGTTTTACTATATACATTTACCTTTTAAGAGGAGGAAT |  | 0.324 | 
60 | ACAGACGAAGGAGCCGCAAAGAAGTTCTTAAGGGATGAATAATCCCTCAATATAAATAACTCTCACTTATTTAAA | 0.162 |  | 
61 | ACAGACGAAGGAGCCGCAAATAAATTATTAAGGGATGAATATTCCCTCAATATAAATATCTCTCACTTATTTAAA | 0.421 |  | 
